# Measurements published in the supplement of paper PMC9112550, “Optimization of the antimicrobial peptide Bac7 by deep mutational scanning” (BMC Biology, 2022).
# System: Escherichia coli TOP10
# Assay: shrunken log2 fold change of peptide-encoding DNA abundance (4.5 h post-induction vs induction); higher = less antimicrobial activity (less host growth inhibition)
# Settings: time post-induction: 4.5 h; library: site-saturation at positions 5, 18, 19, 20
# 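Note: peptides expressed intracellularly from a pBAD plasmid library in pooled LB shake-flask culture, induced with 0.3% L-arabinose, DNA abundance read by NGS, three biological replicates, DESeq2 with apeglm shrinkage.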
row,Sequence,shrunken log2 fold change
1,RRIRPRPPRLPRPRPRPGMWPRP,0.303
2,RRIRYRPPRLPRPRPRPEMPPRP,-0.0307
3,RRIRDRPPRLPRPRPRPKFYPRP,0.0101
4,RRIRNRPPRLPRPRPRPFYYPRP,-0.877
5,RRIRLRPPRLPRPRPRPKWIPRP,0.137
6,RRIRYRPPRLPRPRPRPDERPRP,0.0108
7,RRIRVRPPRLPRPRPRPHACPRP,0.0734
8,RRIRDRPPRLPRPRPRPRYPPRP,-0.0457
9,RRIRPRPPRLPRPRPRPYGCPRP,-0.0896
10,RRIRKRPPRLPRPRPRPTRAPRP,1.2
11,RRIRHRPPRLPRPRPRPTPPPRP,0.391
12,RRIRQRPPRLPRPRPRPQFTPRP,-0.177
13,RRIRERPPRLPRPRPRPCNQPRP,-0.296
14,RRIRYRPPRLPRPRPRPAHFPRP,0.0784
15,RRIRTRPPRLPRPRPRPAHAPRP,0.0759
16,RRIRHRPPRLPRPRPRPYACPRP,-0.225
17,RRIRVRPPRLPRPRPRPQSFPRP,-0.111
18,RRIRTRPPRLPRPRPRPTCLPRP,-0.216
19,RRIRTRPPRLPRPRPRPLAQPRP,0.143
20,RRIRQRPPRLPRPRPRPHMKPRP,-0.0294
21,RRIRRRPPRLPRPRPRPYCCPRP,-0.565
22,RRIRIRPPRLPRPRPRPDKLPRP,-0.275
23,RRIRDRPPRLPRPRPRPSAWPRP,0.123
24,RRIRSRPPRLPRPRPRPNVNPRP,0.259
25,RRIRQRPPRLPRPRPRPFLCPRP,-0.336

row,Sequence,shrunken log2 fold change
1,RRIRNRPPRLPRPRPRPGQIPRP,0.0192
2,RRIRFRPPRLPRPRPRPIQLPRP,-0.336
3,RRIRFRPPRLPRPRPRPVFQPRP,0.071
4,RRIRRRPPRLPRPRPRPDHAPRP,0.0467
5,RRIRTRPPRLPRPRPRPLIAPRP,0.112
6,RRIRFRPPRLPRPRPRPWEIPRP,-0.0062
7,RRIRGRPPRLPRPRPRPHRYPRP,0.0948
8,RRIRVRPPRLPRPRPRPITAPRP,-0.272
9,RRIRVRPPRLPRPRPRPMNDPRP,-0.187
10,RRIRNRPPRLPRPRPRPTIIPRP,-0.905
11,RRIRWRPPRLPRPRPRPMSPPRP,0.000834
12,RRIRSRPPRLPRPRPRPMTGPRP,0.00381
13,RRIRFRPPRLPRPRPRPYNNPRP,-1.15
14,RRIRERPPRLPRPRPRPVVEPRP,0.118
15,RRIRWRPPRLPRPRPRPFMLPRP,-0.174
16,RRIRERPPRLPRPRPRPCYRPRP,-0.357
17,RRIRQRPPRLPRPRPRPCSFPRP,-0.0439
18,RRIRGRPPRLPRPRPRPMMTPRP,3.31
19,RRIRFRPPRLPRPRPRPRTQPRP,1.93
20,RRIRRRPPRLPRPRPRPYPYPRP,-0.0951
21,RRIRMRPPRLPRPRPRPPTVPRP,0.593
22,RRIRGRPPRLPRPRPRPYPQPRP,0.12
23,RRIRHRPPRLPRPRPRPKNIPRP,-0.477
24,RRIRLRPPRLPRPRPRPVVVPRP,1.45
25,RRIRYRPPRLPRPRPRPVTHPRP,0.00542

row,Sequence,shrunken log2 fold change
1,RRIRERPPRLPRPRPRPWMGPRP,0.299
2,RRIRQRPPRLPRPRPRPQCPPRP,-0.229
3,RRIRTRPPRLPRPRPRPWKFPRP,-0.0178
4,RRIRPRPPRLPRPRPRPHCCPRP,-0.181
5,RRIRSRPPRLPRPRPRPHIGPRP,-0.0154
6,RRIRRRPPRLPRPRPRPWVKPRP,0.0557
7,RRIRNRPPRLPRPRPRPSRGPRP,0.513
8,RRIRDRPPRLPRPRPRPMTRPRP,-0.113
9,RRIRERPPRLPRPRPRPQRNPRP,-0.214
10,RRIRVRPPRLPRPRPRPFWGPRP,-0.0605
11,RRIRTRPPRLPRPRPRPNSPPRP,-0.221
12,RRIRWRPPRLPRPRPRPHYFPRP,-0.087
13,RRIRFRPPRLPRPRPRPRPVPRP,0.633
14,RRIRLRPPRLPRPRPRPVRMPRP,0.494
15,RRIRMRPPRLPRPRPRPEDLPRP,4.64
16,RRIRPRPPRLPRPRPRPFEGPRP,-0.0632
17,RRIRFRPPRLPRPRPRPWLMPRP,-0.58
18,RRIRWRPPRLPRPRPRPTNIPRP,-0.509
19,RRIRNRPPRLPRPRPRPAMSPRP,-0.137
20,RRIRWRPPRLPRPRPRPAKDPRP,0.0218
21,RRIRCRPPRLPRPRPRPNEVPRP,-0.153
22,RRIRYRPPRLPRPRPRPTEPPRP,-0.131
23,RRIRFRPPRLPRPRPRPWGNPRP,0.117
24,RRIRYRPPRLPRPRPRPPCDPRP,-0.196
25,RRIRARPPRLPRPRPRPVDLPRP,0.174
